Experimental data from patent publication US20190367625A1, “AMHRII-BINDING COMPOUNDS FOR PREVENTING OR TREATING CANCERS” (GAMAMABS PHARMA, priority 2017, published 2019).
“Also recorded” adds a separate entry of the source.

Experiments:
[1] = tested on: HuPrime® HCC xenograft model LI1097; assay: Efficacy study in HuPrime HCC xenograft model LI1097 (tumor volume, TGI, T/C, T-C); format: in vivo, BALB/c nude mice; conditions: for Tumor Volume: mean ± SEM; for anti-tumor activity against HCC xenograft (in words): LI1097, compared with sorafenib
Description: To evaluate preclinically the in vivo efficacy of GamaMabss' anti-AMHR2 monoclonal antibody, named GM102 in the treatment of Huprime® HCC xenograft model LI1097 in Balb/C nude mice. The model LI1097 was selected after a screening for AMHR2 transcription processed by CrownBio, using RNAseq (transcriptome sequencing). Further, AMHR2 membranous protein expression of this model was confirmed by Institut Curie, France, using IHC.
• Strain: BALB/c Nude • Age: 7-8 weeks (Treatment starting) • Gender: female • Total #: 32 mice plus spare
• HuPrime® Liver cancer model L11097 derived from a HCC patient was selected for this efficacy study. This model reached 1000 mm^3 in 20-25 days post inoculation.
• Product identification: GamaMabs's Ab (3C23K) • Manufacturer: GamaMabs Pharma • Lot number: R18H2-LP01 • Batch: 04GAM140513API • Quantity needed: 255 mg based on animal BW of 25 g with 50% spare • Package and storage condition: [30 ml/tube], 30 ml, [2-8° C.] • Concentration: 10.1 g/L • Product identification: Sorafenib • Manufacturer: Melonepharma • Lot number: D1111A • Quantity needed: 300 mg based on animal BW of 25 g with 50% spare • Package and storage condition: 400 mg, [RT]
Tumor fragments from stock mice inoculated with selected primary human cancer tissues were harvested and used for inoculation into BALB/c nude mice. Each mouse was inoculated subcutaneously at the right flank with primary human HCC model LI1097 fragment (R12P4, 2-4 mm in diameter) for tumor development on Jun. 9, 2015. The parent mouse number was #80150. #80151 and #80153. The mice were grouped when the average tumor size reached about 145 mm^3 on Jun. 24, 2015. Mice were allocated randomly into 4 experimental groups according to their tumor sizes. Each group consisted of 8 mice, 4 mice per cage. The day was denoted as day 0. The test articles were administered to the tumor-bearing mice from day 0 (Jun. 24, 2015) through day 27 (Jul. 21, 2015) according to pre-determined regimen shown in Section 1.1 Experimental Design.
Tumor size were measured twice weekly in two dimensions using a caliper, and the volume is expressed in mm^3 using the formula: TV=0.5 a×b^2, where a and b are the long and short diameters of the tumor, respectively. The tumor size is then used for calculations of TGI, T/C, and T-C values according to the description in the Table 2 in Abbreviations.
The study was ended after 28 days treatment and mice were sacrificed.
Summary statistics, including mean and the standard error of the mean (SEM), are provided for the tumor volume of each group at each time point. Statistical analysis of difference in tumor volume among the groups was evaluated using a one-way ANOVA followed by multiple comparisons using Games-Howell. All data were analyzed using SPSS 16.0. P<0.05 was considered to be statistically significant.

[2] = Body weight and tolerability in LI1097 tumor-bearing mice; format: in vivo; conditions: for body weight loss observed in treated mice: mean; for tolerability / toxic events (in words): LI1097 tumor-bearing mice, antibody 20 and 50 mg/kg i.v., sorafenib 50 mg/kg p.o.
Method: When individual mouse has a body weight loss ≥20%, the mouse will be given dosing holiday(s) until its body weight recovers to the baseline.
All the procedures related to animal handling, care, and the treatment in this study were performed according to guidelines approved by the Institutional Animal Care and Use Committee (IACUC) of CrownBio following the guidance of the Association for Assessment and Accreditation of Laboratory Animal Care (AAALAC). At the time of routine monitoring, the animals were checked for any effects of tumor growth on normal behavior such as mobility, food and water consumption (by looking only), body weight gain/loss, eye/hair matting and any other abnormal effect. Death and observed clinical signs were recorded on the basis of the numbers of animals within each subset.
Under following conditions, the in-life experiment of individual animal or whole groups will be terminated, by humane euthanization, prior to death, or before reaching a comatose state. • In a continuing deteriorating condition with severe clinical signs of severe distress and/or pain, inaccessible to adequate food or water; • Significant body mass (emaciated) (>20%); • Individual mouse with tumor size exceeding 3000 mm^3 or MTV>2000 mm^3.

[3] = molecular target: T1, AMHRII (form used for the Kd not stated) (human, UniProt Q16671 18-149, limits assumed)
T1 construct: Neither the construct nor the assay behind the Kd is described
T1 sequence (Q16671 18-149 limits assumed): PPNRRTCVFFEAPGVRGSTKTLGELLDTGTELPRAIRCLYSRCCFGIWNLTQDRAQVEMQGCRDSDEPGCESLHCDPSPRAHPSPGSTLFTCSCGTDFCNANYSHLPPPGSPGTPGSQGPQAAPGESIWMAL

[4] = tested on: Champions TumorGraft® model CTG-0401 (human colorectal cancer); assay: Efficacy study in model CTG-0401 of human colorectal cancer; format: in vivo, Athymic Nude-Foxn1nu mice; conditions: 20 mg/kg IP BIWx4; comparator Irinotecan 100 mg/kg IP Q7Dx3; listed as GM102
Method: Stock mice (Athymic Nude-Foxn1^nu from Envigo) were implanted with tumor fragments from Champions TumorGraft® model CTG-0401. After the tumors reached 1000-1500 mm^3, they were harvested and the tumor fragments were implanted SC in the left flank of the female study mice. Each animal was implanted with a specific passage lot: passage 6 for CTG-0401. Tumor growth was monitored twice a week using digital calipers and the tumor volume (TV) was calculated using the formula (0.52×[length×width^2]). After the tumor volume reached 175±7 mm^3, mice were selected based on their tumor size and were randomly allocated into 4 groups of 12 animals per group (Day 0). After the initiation of dosing on Day 0, animals were weighed twice per week using a digital scale and TV was measured twice per week and also on the final day of study. The study was terminated when the mean tumor volume in the vehicle control group reached 1500 mm^3 or up to Day 60, whichever occurred first.

[5] = 50 mg/kg, QD × 4 weeks, p.o., day 13
[6] = 20 mg/kg, BIW × 4 weeks, i.v., day 13
[7] = 50 mg/kg, BIW × 4 weeks, i.v., day 13

Molecule: CNC(=O)c1cc(Oc2ccc(NC(=O)Nc3ccc(Cl)c(C(F)(F)F)c3)cc2)ccn1 [Sorafenib, reference compound]
- T-C (days) at 1000 mm^3 ([1]; 50 mg/kg, QD × 4 weeks, p.o.): 8 days
- Tumor Volume ([1]; 50 mg/kg, QD × 4 weeks, p.o., day 0): 145.18 ± 16.97 mm^3
- Tumor Volume ([1]; 50 mg/kg, QD × 4 weeks, p.o., day 2): 321.35 ± 45.66 mm^3
- Tumor Volume ([1]; 50 mg/kg, QD × 4 weeks, p.o., day 6): 493.84 ± 65.13 mm^3
- Tumor Volume ([1]; 50 mg/kg, QD × 4 weeks, p.o., day 9): 695.20 ± 66.81 mm^3
- T/C (%) [1, 5]: 35.1%
- TGI (%) [1, 5]: 64.9%
- Tumor Volume [1, 5]: 891.50 ± 103.33 mm^3
- Tumor Volume ([1]; 50 mg/kg, QD × 4 weeks, p.o., day 16): 1135.40 ± 133.62 mm^3
- Tumor Volume ([1]; 50 mg/kg, QD × 4 weeks, p.o., day 20): 1478.84 ± 189.62 mm^3
- Tumor Volume ([1]; 50 mg/kg, QD × 4 weeks, p.o., day 23): 1627.4 ± 202.91 mm^3
- Tumor Volume ([1]; 50 mg/kg, QD × 4 weeks, p.o., day 27): 1829.66 ± 256.4 mm^3
- body weight change at study termination ([2]; 50 mg/kg, QD × 4 weeks, p.o.): −7.63%
- mean maximum body weight loss ([2]; 50 mg/kg, QD × 4 weeks, p.o., day 27 of treatment): 7.63%
- body weight loss observed in treated mice ([2]; 50 mg/kg, QD × 4 weeks, p.o.): 7%
- body weight loss observed in treated mice ([2]; 50 mg/kg, QD × 4 weeks, p.o., listed as sorafenib): up to 7%

B1: 3C23K anti-AMHRII monoclonal antibody (antibody, human IgG1, kappa, V domains shown)
VH: QVRLVQSGAEVKKPGASVKVSCKASGYTFTSYHIHWVRQAPGQRLEWMGWIYPGDDSTKYSQKFQGRVTITRDTSASTAYMELSSLRSEDTAVYYCTRGDRFAYWGQGTLVTVSS
VL: DIQMTQSPSTLSASVGDRVTITCRASSSVRYIAWYQQKPGKAPKLLTYPTSSLKSGVPSRFSGSGSGTEFTLTISSLQPDDFATYYCLQWSSYPWTFGGGTKVEIKR
notes: Humanized antibody; also called GM102; GamaMabs's Ab
- Kd [3]: 0.0553 nM

B2: 3C23K: humanized anti-AMHRII monoclonal antibody; VH SEQ ID NO 19, VL SEQ ID NO 36 (antibody, V domains shown)
VH: QVRLVQSGAEVKKPGASVKVSCKASGYTFTSYHIHWVRQAPGQRLEWMGWIYPGDDSTKYSQKFQGRVTITRDTSASTAYMELSSLRSEDTAVYYCTRGDRFAYWGQGTLVTVSS
VL: DIQMTQSPSTLSASVGDRVTITCRASSSVRYIAWYQQKPGKAPKLLTYPTSSLKSGVPSRFSGSGSGTEFTLTISSLQPDDFATYYCLQWSSYPWTFGGGTKVEIK
modifications: Synthetic 3C23K/3C23; Synthetic 3C23K
- T-C (days) at 1000 mm^3 ([1]; 20 mg/kg, BIW × 4 weeks, i.v.): 3 days
- Tumor Volume ([1]; 20 mg/kg, BIW × 4 weeks, i.v., day 0): 145.15 ± 16.79 mm^3
- Tumor Volume ([1]; 20 mg/kg, BIW × 4 weeks, i.v., day 2): 358.57 ± 51.86 mm^3
- Tumor Volume ([1]; 20 mg/kg, BIW × 4 weeks, i.v., day 6): 665.09 ± 85.00 mm^3
- Tumor Volume ([1]; 20 mg/kg, BIW × 4 weeks, i.v., day 9): 952.12 ± 171.45 mm^3
- T/C (%) [1, 6]: 48.7%
- TGI (%) ([1]; 20 mg/kg, BIW × 4 weeks, i.v., day 13, listed as GamaMabs's Ab): 51.3%
- Tumor Volume [1, 6]: 1179.90 ± 232.26 mm^3
- Tumor Volume ([1]; 20 mg/kg, BIW × 4 weeks, i.v., day 16): 1479.51 ± 292.49 mm^3
- Tumor Volume ([1]; 20 mg/kg, BIW × 4 weeks, i.v., day 20): 1973.13 ± 372.07 mm^3
- Tumor Volume ([1]; 20 mg/kg, BIW × 4 weeks, i.v., day 23): 1814.59 ± 231.17 mm^3
- Tumor Volume ([1]; 20 mg/kg, BIW × 4 weeks, i.v., day 27): 2081.67 ± 213.28 mm^3
- T-C (days) at 1000 mm^3 ([1]; 50 mg/kg, BIW × 4 weeks, i.v.): 5 days
- Tumor Volume ([1]; 50 mg/kg, BIW × 4 weeks, i.v., day 0): 145.24 ± 16.38 mm^3
- Tumor Volume ([1]; 50 mg/kg, BIW × 4 weeks, i.v., day 2): 297.78 ± 46.32 mm^3
- Tumor Volume ([1]; 50 mg/kg, BIW × 4 weeks, i.v., day 6): 532.71 ± 104.17 mm^3
- Tumor Volume ([1]; 50 mg/kg, BIW × 4 weeks, i.v., day 9): 751.81 ± 176.15 mm^3
- T/C (%) [1, 7]: 45.7%
- TGI (%) ([1]; 50 mg/kg, BIW × 4 weeks, i.v., day 13, listed as GamaMabs's Ab): 54.3%
- Tumor Volume [1, 7]: 1117.12 ± 302.85 mm^3
- Tumor Volume ([1]; 50 mg/kg, BIW × 4 weeks, i.v., day 16): 1476.74 ± 407.93 mm^3
- Tumor Volume ([1]; 50 mg/kg, BIW × 4 weeks, i.v., day 20): 1602.61 ± 481.85 mm^3
- Tumor Volume ([1]; 50 mg/kg, BIW × 4 weeks, i.v., day 23): 1148.22 ± 381.49 mm^3
- Tumor Volume ([1]; 50 mg/kg, BIW × 4 weeks, i.v., day 27): 1454.47 ± 479.27 mm^3
- anti-tumor activity against HCC xenograft (in words) [1]: of the same order of magnitude as sorafenib
- anti-tumor activity against HCC xenograft (in words) ([1]; listed as GamaMabs's Ab): close to that induced by sorafenib
- body weight change at study termination ([2]; 20 mg/kg, BIW × 4 weeks, i.v.): 2.68%
- body weight change at study termination ([2]; 50 mg/kg, BIW × 4 weeks, i.v.): -0.38%
- tolerability / toxic events (in words) [2]: no detectable toxic event
- tolerability / toxic events (in words) ([2]; listed as GM102): not accompanied by any toxic event
- tolerability / toxic events (in words) ([2]; listed as GamaMabs's Ab): No animal death or significant body weight loss; also recorded: well tolerated
- in vivo anti-tumor effect against AMHRII-expressing human colorectal tumor (in words, FIG. 10) [4]: efficient in vivo anti-tumor effect; also recorded: indistinguishable from the anti-tumor effect of the mainly used anti-colon cancer molecule Irinotecan
